Experimental data taken from patent US20240287172A1 (SCIRHOM, published 2024).
Positions count from the first letter of the chain named.

Key:
hiR2-FL-K573A-T7 = molecular target: T1, hiR2-FL-K573A-T7 (human, UniProt Q6PJF5 1-856); test: FACS on MEF-DKO cells expressing the variant, 3 µg/ml antibody
T1 sequence: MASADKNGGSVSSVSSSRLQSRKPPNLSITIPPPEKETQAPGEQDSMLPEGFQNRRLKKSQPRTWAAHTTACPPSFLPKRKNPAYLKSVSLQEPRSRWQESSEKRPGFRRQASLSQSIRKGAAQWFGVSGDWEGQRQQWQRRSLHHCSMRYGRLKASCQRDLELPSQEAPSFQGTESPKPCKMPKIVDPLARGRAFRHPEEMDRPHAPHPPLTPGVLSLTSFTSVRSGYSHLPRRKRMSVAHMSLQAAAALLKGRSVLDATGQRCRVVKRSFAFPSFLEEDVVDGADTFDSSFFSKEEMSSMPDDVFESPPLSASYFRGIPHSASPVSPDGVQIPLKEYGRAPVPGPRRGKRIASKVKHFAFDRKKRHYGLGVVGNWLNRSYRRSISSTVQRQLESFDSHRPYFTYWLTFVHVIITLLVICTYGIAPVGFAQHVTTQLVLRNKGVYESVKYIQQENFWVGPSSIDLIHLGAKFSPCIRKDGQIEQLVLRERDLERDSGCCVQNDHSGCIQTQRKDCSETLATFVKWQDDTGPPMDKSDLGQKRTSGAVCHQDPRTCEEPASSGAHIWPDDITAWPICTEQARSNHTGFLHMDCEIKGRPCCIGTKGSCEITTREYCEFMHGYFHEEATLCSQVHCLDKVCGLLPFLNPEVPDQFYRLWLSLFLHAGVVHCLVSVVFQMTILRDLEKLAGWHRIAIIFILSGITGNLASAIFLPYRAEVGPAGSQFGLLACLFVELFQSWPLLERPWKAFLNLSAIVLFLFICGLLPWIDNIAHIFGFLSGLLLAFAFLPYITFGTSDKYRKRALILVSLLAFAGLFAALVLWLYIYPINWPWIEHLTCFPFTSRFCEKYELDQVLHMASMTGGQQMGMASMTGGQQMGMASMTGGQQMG
How it was run: (§1)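 Cells were stained with purified antibody at 3 μg/ml in FACS buffer for 1 hour on ice, with buffer-only controls. Bound antibody was detected with PE-conjugated goat anti-mouse IgG F(ab′)2 at 1:100, 1 hour on ice in the dark, followed by flow cytometry.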

hiR2-FL-T578A-T7 = molecular target: T2, hiR2-FL-T578A-T7 (human, UniProt Q6PJF5 1-856); test: as above
T2 sequence: T1 sequence with A573K, T578A
How it was run: as §1

B1: antibody 3 (antibody, V domains shown)
VH: QVTLKESGPGILQPSQTLSLTCSFSGFSLTTFAMGIGWVRQPSGKGLEWLAHIWWDGEKYNNPVLKSRLTISKDTSKNQVFLRIANVDTPDTATYYCARISSIYYIIDNWGQGTSVTVSS
VL: DIVLTQSPATLSVTPGHSVSLSCRASQSISNNLHWYQKKSHESPRLLIKYVSQSISGIPSRFSGSGSGTDFTLSINSVETEDFGMYFCQQSYNWPLTFGAGTKLELK
notes: mouse IgG, kappa light chain; also called clone #3; purified antibody 3
In the case of B1, the “loss of binding vs wild type” value (hiR2-FL-K573A-T7) is reported as at least 30% and the “loss of binding vs wild type” value (hiR2-FL-T578A-T7) is reported as at least 30%.
